The assay has as its target neddylated CUL5 (human, UniProt Q93034 1-780, Lys724 isopeptide-linked to NEDD8). In words: cryo-EM structure.

Sequence of neddylated CUL5 (Q93034 whole entry): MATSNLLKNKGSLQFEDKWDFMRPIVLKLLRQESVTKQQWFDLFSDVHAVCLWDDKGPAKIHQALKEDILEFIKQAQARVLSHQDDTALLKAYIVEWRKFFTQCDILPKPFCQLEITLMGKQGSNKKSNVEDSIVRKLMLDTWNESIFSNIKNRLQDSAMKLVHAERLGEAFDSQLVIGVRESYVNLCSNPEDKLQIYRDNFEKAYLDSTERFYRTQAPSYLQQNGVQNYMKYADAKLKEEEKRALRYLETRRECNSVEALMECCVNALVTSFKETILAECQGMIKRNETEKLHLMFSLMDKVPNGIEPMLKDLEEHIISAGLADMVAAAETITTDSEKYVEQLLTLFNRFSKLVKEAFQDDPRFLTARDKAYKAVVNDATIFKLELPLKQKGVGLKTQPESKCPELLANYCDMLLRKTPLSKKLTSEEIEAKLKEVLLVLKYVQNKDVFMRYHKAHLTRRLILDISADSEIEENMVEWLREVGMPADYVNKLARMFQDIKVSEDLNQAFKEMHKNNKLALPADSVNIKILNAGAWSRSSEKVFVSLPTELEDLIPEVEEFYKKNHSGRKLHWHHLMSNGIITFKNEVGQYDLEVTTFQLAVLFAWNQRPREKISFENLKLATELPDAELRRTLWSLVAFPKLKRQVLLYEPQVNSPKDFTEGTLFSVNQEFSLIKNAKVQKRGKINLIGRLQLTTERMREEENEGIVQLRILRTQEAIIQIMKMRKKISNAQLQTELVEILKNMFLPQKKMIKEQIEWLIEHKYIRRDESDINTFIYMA

B1: ARIH2* (full-length ARIH2 with L381A, E382A and E455A residue substitutions) (enzyme)
chain: MSVDMNSQGSDSNEEDYDPNCEEEEEEEEDDPGDIEDYYVGVASDVEQQGADAFDPEEYQFTCLTYKESEGALNEHMTSLASVLKVSHSVAKLILVNFHWQVSEILDRYKSNSAQLLVEARVQPNPSKHVPTSHPPHHCAVCMQFVRKENLLSLACQHQFCRSCWEQHCSVLVKDGVGVGVSCMAQDCPLRTPEDFVFPLLPNEELREKYRRYLFRDYVESHYQLQLCPGADCPMVIRVQEPRARRVQCNRCNEVFCFKCRQMYHAPTDCATIRKWLTKCADDSETANYISAHTKDCPKCNICIEKNGGCNHMQCSKCKHDFCWMCLGDWKTHGSEYYECSRYKENPDIVNQSQQAQAREALKKYLFYFERWENHNKSLQAAAQTYQRIHEKIQERVMNNLGTWIDWQYLQNAAKLLAKCRYTLQYTYPYAYYMESGPRKKLFEYQQAQLEAEIANLSWKVERADSYDRGDLENQMHIAEQRRRTLLKDFHDT
B1: the binding result is on record as “binds”.

B2: RBX2 (natural protein)
chain: EDGEETCALASHSGSSGSKSGGDKMFSLKKWNAVAMWSWDVECDTCAICRVQVMDACLRCQAENKQEDCVVVWGECNHSFHNCCMSLWVKQNNRCPLCQQDWVVQRIGK
Take B2: the binding result is given as “binds”.

Values taken from article PMC8460447 (Nature chemical biology, 2021).
